Measurements reported in paper PMC3000613 (Biochemistry, 2010).

Assays:
GST-Obsc_(6316–6345) = GST-Obsc_(6316–6345) (rat); test: SPR
GST-Obsc_(6231–6260) = target: T1, GST-Obsc_(6231–6260) (rat); test: SPR
T1 chain: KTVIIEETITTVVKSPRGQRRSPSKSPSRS

B1: MBP-sAnk1_(29–155) (domain or fragment)
chain: VKGSLCFVLKHIHQELDKELGESEGLSDDEETISTRVVRRRVFLKGDELQNIPGEQVTEEQFTDEQGNIVTKKIIRKVVRQVDSSGAIDTQQHEEVELRGSGLQPDLIEGRKGAQIVKRASLKRGKQ
Kd (GST-Obsc_(6316–6345)): 133 nM
koff (GST-Obsc_(6316–6345)): 0.000792 s⁻¹
kon (GST-Obsc_(6316–6345)): 6290 M⁻¹ s⁻¹
Kd (GST-Obsc_(6231–6260)): 384 ± 53 nM
